The values below come from patent publication US20230076357A1.

Experiment in all cases: cell-based or functional assay
In experiment [1] the target is nCas9-LZ1 (NLS-SpCas9(H840A)-NLS-EE12RR345L(leucine zipper)) (Streptococcus pyogenes serotype M1) (UniProt Q99ZW2).
The target in experiment [2] is nCas9(1-1172)-Npu N intein (Streptococcus pyogenes serotype M1) (UniProt Q99ZW2).
In experiment [3] the target is constitutively active SAMHD1 (SAMHD1 (T592A)) (UniProt Q9Y3Z3).
Chain of constitutively active SAMHD1 (SAMHD1 (T592A)) (Q9Y3Z3 whole entry T592A): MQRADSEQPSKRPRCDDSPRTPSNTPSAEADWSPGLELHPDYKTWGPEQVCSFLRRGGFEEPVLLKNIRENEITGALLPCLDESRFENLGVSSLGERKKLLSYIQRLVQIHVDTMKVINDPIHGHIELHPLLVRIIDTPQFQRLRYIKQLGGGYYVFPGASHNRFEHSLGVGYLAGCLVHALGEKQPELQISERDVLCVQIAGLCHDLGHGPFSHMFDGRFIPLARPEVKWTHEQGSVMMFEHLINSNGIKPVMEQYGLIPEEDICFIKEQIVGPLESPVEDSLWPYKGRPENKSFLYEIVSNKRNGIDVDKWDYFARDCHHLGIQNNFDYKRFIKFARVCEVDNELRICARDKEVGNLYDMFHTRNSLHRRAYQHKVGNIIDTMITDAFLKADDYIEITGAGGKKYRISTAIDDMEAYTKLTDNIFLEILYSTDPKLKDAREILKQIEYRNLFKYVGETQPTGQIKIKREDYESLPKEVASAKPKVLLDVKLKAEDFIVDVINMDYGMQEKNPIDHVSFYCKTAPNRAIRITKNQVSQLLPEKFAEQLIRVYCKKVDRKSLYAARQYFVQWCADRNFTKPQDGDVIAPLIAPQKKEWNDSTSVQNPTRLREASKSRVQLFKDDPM

In the case of “LZ2-mlvRT (RR12EE345L(leucine zipper)-mlvRTv(D200N, L603W, T306K, W313F, T330P)-NLS) (enzyme)”, the editing efficiency (BFP to GFP conversion in HEK293T-BFP cells) in experiment [1] was determined as 38%.

“Npu C intein-nCas9(1173-1368 with S1173C)-mlvRT5M (enzyme)” showed an editing efficiency (% GFP+) in experiment [2] of 29%.

“VPX^RH2-1 (variant of VPX from HIV-2 clinical isolate RH2-1) (from UniProt P20881 1-112)” had an editing efficiency with RW2I, edit 2 nt from the nick, SAMHD1 (T592A) coexpressed in experiment [3] of 64%.

With “Vpx peptide (Hiv2-rod Vpx) (from UniProt P06939 1-112)”, in experiment [3], the editing efficiency relative to that without SAMHD1^p-, edit 65 nt from the nick turned out to be 78%.
